Experimental data taken from the RNAGym collection of RNA variant scans (doi:10.1073/pnas.2313332121).

B1: TPR t1 (parent)
chain: GACCAAUCUGCCCUCAGAGCUCGAGAACAUCUUCGGAUGCAGAGGAGGCAGGCUUCGGUGGCGCGAUAGCGCCAACGUCCUCAACCUCCAAUGCAUCCCACCACAUGAUGAUGCCUGAAGAGCCUUGGUUUUUUG

Variants of: B1
Assay: polymerase ribozyme fitness, log enrichment relative to wild type (log ratio); higher = more active; in vitro selection for triplet polymerase activity
How it was run: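 Fitness measures genotype enrichment against wild-type enrichment on a logarithmic scale, with inverse-variance-weighted averaging of replicates. The logarithm is base 2, and genotypes were kept only with ≥10 input reads and ≥1 read per output in Illumina sequencing. The sequenced libraries came from one triplicate in vitro selection round, including frozen incubation at −7 °C, of PCR-built, transcribed mutant libraries of each subunit of a heterodimeric triplet polymerase ribozyme.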

Point of comparison: C12U C20G A43C G48A C62U, “polymerase ribozyme fitness (log ratio)” value -6.08. Against it:
- C12G C13A G45C C56U — higher, -1.27
- C12U A41U A50U G57C C76G C99U — lower, -7.02
- C12U A74U C80A C97U A121G U133A — higher, -0.836
- C12G A46C C101U U132C — higher, -1.45
- C13A C115U — higher, -3.06
- C12U A37U A111G C123A — higher, -0.195
- C12U G48A C115G U129A G135U — higher, -2.25
- C13A G48A C114U U129A — higher, -5.75
- C13A A43C A83G C102A G110A U129C — lower, -6.67
- C12U G63U — higher, -0.968
- C12G C13A G42C G69A G117C A118U U134G — higher, -4.53
- C12U G128A — higher, -1.59
- C12U C15U — higher, -0.154
- C12U G39A C72A A74G C79U C80G — higher, -5.3
- C13G C20U — higher, -2.34
- C12G A16U G45U C89G U129C — higher, -4.69
- C12G A26G — higher, -1.93
- C12U G39A C72G C85U — higher, -1.34
- C12U G23A G120A — higher, -3.8
- C12U G71A — higher, -0.123
- C13A A43C C101A A111C — lower, -6.5
- C12G C15U — higher, -0.505
- C12U C13U U38C C40A A91U — higher, -3.21
- C12U C13U A43G G61A — higher, -2.1
- C12U U78A A108U G120C — higher, -5.26
- C12U C124G — higher, 2.23
- C12U C20U A43U G45A C56G G113A — higher, 0.057
- C12G A26C G60U — higher, -3.25
- C13A A43C G44A G77A A83U — higher, -4.05
- C12U G17C G71A C97G C115G — higher, -4.83
- C12U G25A G93C G120C — lower, -7.38
- C13A G93C C123G — higher, -0.906
- C12U A50U — higher, -1.64
- C12U C72U U81G — higher, -3.47
- C12G C53A — higher, 0.285
- C12G C28U G36U G60A A83C C97U — higher, -3.31
- C12U G69C U81C G110U — higher, -3.57
- C12G C72U U116A G120U — higher, -0.787
- C12U C13U C20A G47C C86U — higher, -2.7
- C13G A41U C72G C101U — higher, -3.53
- C12G C62G A108G — higher, -3.58
- C12G C13U G52U G61U C102U A121U G122C — higher, -1.95
- C13A U32C U109G G120C — higher, -5.75
- C12U C15G G71C G127C — higher, -4.84
- C12U A46C C53G G71C A84C A95C — higher, -2.46
- C12U G39U G63U G77C — higher, -3.85
- C13A U92C — higher, -3.57
- C12G C56A C70G — higher, -3.89
- C13A C89G C97U — higher, -3.27
- C12U G25U — lower, -6.45
- C13A U81A C88U G110A A121C — higher, -2.71
- C12U C104U — higher, 0.248
- C12G A18U G51U A74G C86A C124A — lower, -6.6
- C13A C20U U38A A91U C124G — higher, -1.87
- C12U G39A C56A — higher, -0.34
- C12A U54A G113C U125G — higher, -3.66
- C12U C22U U59C C89G U109A U116A C123G — lower, -7.4
- C12G C22U U32G C102A A111U G122U — lower, -7.04
- C13A A84G — higher, -2.42
- C12U G48U A111C — higher, -0.108
- C12A U133G — higher, -1.24
- C12U G61C — higher, -1.48
- C12G C53A C73G G107C U112C — higher, -3.66
- C12G G113A — higher, -0.4
- C13A G44A G127C U131C — higher, -2.25
- C12U U54A A91C C115U — higher, -0.811
- C12U G42U G77U G117U U126C — higher, -1.93
- C12U C13A G60C A121U — higher, 1
- C12G U14A — higher, -1.56
- C12U C20A C28U A37G G42A G45U A46U G48A C82U G110A A111U A119G — higher, -4.23
- C12U C49U G77A C97A C98A U109A A119U G127C — lower, -6.68
- C12U C13A C114G — higher, -4
- C12U C20U U96C — higher, -0.583
- C12U A41U C56A U87A C114U — higher, -3.21
- C12G C13U — higher, -0.223
- C13A G44U C72U U78C G128A — within 0.2 log units, -6.14
- C12U C20U C40U C49G — higher, -1.67
- C12G A83U C104A U125G — higher, -2.42
- C12U C115U — higher, -0.992
- C12U U112G — higher, 0.735
- C12U A16G C20U C64A A84U U112G G113U — lower, -7.14
- C12U G48A G51U C56A — higher, -2.84
- C12U G36C G117U — higher, -0.382
- C12U C64U C98U — higher, -0.396
- C13A G122A — higher, -2.07
- C13A U112G — higher, -1.5
- C13G A41U C56U A121G — higher, 0.91
- C12G A29U A46U C124A — higher, -1.77
- C12G C64G — higher, -5.49
- C12G C64U — higher, 0.291
- C12U A18C G71U U131C — higher, -1.9
- C13A G71A A74C G128A — higher, -5.69
- C12G U14G G52C G61A C82A C88A A118U — higher, -2.32
- C12G G39A C89A U106C — higher, -2.19
- C13A C15G A37U A103C — lower, -6.73
- C13A C56U U59A — higher, -2.77
- C12U C13A C72G U78C — higher, -1.57
- C12A U55G C72U U92G — higher, -2.88
- C12G C82U C97A — higher, -3.58
- C12G C40G — higher, -1.2
- C13A C15U G44A C49U C73U C89A — higher, -4.76
- C13A C20U G61U — higher, -2.05
- C12U A83C — higher, 0.0344
- C12U A37U A119U — higher, -0.00616
- C13A C72G C82A C94U G110A — higher, -3.05
- C12G C34G G69U A83C — higher, -3.04
- C13A A16U G60U C88U A121G — higher, 1.33
- C13A C70G C98U G120A — higher, -2.39
- C13A C97A — higher, -5.11
- C13A C97U — higher, -2.68
- C12G U55C C88A C104G G113A C123G C124A — lower, -6.5
- C12U A29C U131G — higher, -2.88
- C12U C49A C76G C80G C88A U92C U112C — lower, -7.46
- C12G A18C C80U U112G — higher, -3.95
- C13A G63A G77U U106A C114A — lower, -6.33
- C12G A41C C82U — higher, -0.401
- C12U C49A U96C — higher, -0.405
- C13A C53A — higher, -0.605
- C12U C15U U38C A43C C123A — higher, -1.45
- C12U C99U — higher, -2.6
- C12U C49G G61C — higher, -1.89
- C13A A103U A108U G117C U129A — lower, -6.73
- C12G C62U A75C A108G — higher, -2.34
- C13A A29G C70U A95U C124A — higher, -1.57
- C12U G51U C73A U92A G113U U116G — lower, -7.04
- C13A U96A — higher, -2.64
- C13A C73A G120A C123A — higher, -0.951
- C13G A83U — higher, -2.24
- C13A C20U G61U C72U — higher, -3.24
- C12G G19A G63U C79G U81G U112C G117U — lower, -7.76
- C13A G36C G69C — higher, -2.94
- C13A G61A C88A G110A — higher, -2.92
- C12U G51A U78C — higher, -2.26
- C12U A27G C40U C56U C86U C102U — higher, -3.62
- C12U G47U C85U U129G — higher, -3.07
- C12A U78A — higher, -1.37
- C12U U54A — higher, 0.369
- C12A U130A — higher, -2.22
- C12G A27U C56U C101G C102A C104G C114U — higher, -5.64
- C12U C13U — higher, -0.904
- C12U C56A G69A U129A — higher, -5.35
- C12G C15A C22U A26G U116C A118U C124G — higher, -2.97
- C12G G61C — higher, -0.968
- C12G G42A G52A C62U C104A — higher, -5.44
- C12U U14A C64U G110U G113A U130C — higher, -4.16
- C13A G77U U106A C114A — higher, -4.55
- C12G C56A — higher, 0.208
- C13A A95C G120A — higher, -0.521
- C12G A50U G117C U125C — lower, -6.32
- C12U C28G — higher, -1.98
- C13A G63U U112C — higher, -1.77
- C12G A46G G63A C115G — within 0.2 log units, -6.03
- C13G C20U G48A — higher, -3.29
- C12U A27C C62A A83U — within 0.2 log units, -6.02
- C12U C34G G127A — within 0.2 log units, -6.04
- C13A G71A — higher, -0.843
- C12G A29U G39U U55G — higher, -2.45
- C12A U96A A121G — higher, -0.355
- C12G A27G — higher, -1.67
- C12G A103U — higher, -4.83
- C13A C49U C53G U112C — higher, -2.14
- C13A G69U C72A G113A — higher, -1.88
- C12A U55A G122A U126A — higher, -5.02
- C12G C62U U116A — higher, -2.68
- C12U G17C A29G C82A A90U A95C U106C G120A A121U — lower, -6.75
- C13A G61U U92C C114A — higher, -3.9
